Tested on: MS2 coat protein
Assay: apparent KD of MS2 coat protein; higher = weaker reporter binding
Conditions: Eterna round: R107
Procedure, shortened: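 Designed RNA switches were transcribed on-chip from Illumina sequencing clusters. They were then titrated with SNAP-549-labelled MS2 coat protein (twofold steps, 0.7 or 1.5 nM to 3 µM; 0.8–1.5 h to 10–20 min per step) in 100 mM Tris-HCl pH 7.5, 80 mM KCl, 4 mM MgCl2, without or with constant ligand. Apparent KD is the per-design median of normalised cluster binding-curve fits.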

[1] = input ligand: theophylline 20 uM
[2] = input ligand: tryptophan 2.4 mM
[3] = input ligand: theophylline 2 mM

| Sequence | apparent KD of MS2 coat protein (input ligand: arginine 13.2 mM) [nM] | apparent KD of MS2 coat protein [1] [nM] | apparent KD of MS2 coat protein [2] [nM] | apparent KD of MS2 coat protein [3] [nM] | apparent KD of MS2 coat protein (input ligand: none) [nM] |
| --- | --- | --- | --- | --- | --- |
| AAUAACAUGAGGAUCACCCAUGUAAAAGAUACCAGAGUGAUGAUCCUCCCUUGGCAGCUUAAUAACGCUAUUGAUUACAAUAGCG [Mat - Same State Theophlline A - Mod of Eli - D6] | 33.5 | 98.7 | 37.2 |  |  |
| GAGCGCGUGGACUGGCGUGCUCCGCUCCGUCGAGGACCGGUACGGCCGCCACUCGACAUGAGGAUCACCCAUGUGUGCGCUCGCG [#1 Exclusion - Tryptophan A Attempt #19 (HarryS)] | 32.9 | 210 |  | 317 |  |
| AUGCAACAUGAGGAUCACCCAUGUGGUGAUACCAGUCGACAAGUAGACCCUUGGCAGCACAGCCGAUAUCGAGAGAGAUUUUUGG [theeternabot_sameState_MS2_Theo_A_23] | 64.4 | 476 | 824 |  |  |
| AGGAAGACGAUGGAUACCAGACAACCAGGGAACAUGAGGAUCACCCAUGUGAUUGAAAGGGUCCCUUGGCAGCCAGAAGCCGUUG [theeternabot_sameState_MS2_Theo_B_31] | 68.5 | 173 | 130 |  |  |
| CAAGACAUGAGGAUCACCCAUGUGGUGUACCGAGGACCGGUACGGCCGCCACUCGUUCAUCGGUCGACAAGCUACCCUUCAAGGU [theeternabot_sameState_MS2_Trp_A_7] | 25.5 | 40.4 |  | 27.7 |  |
| UGUAUGUGAUCUGAUACCAGUCCAACUGGUAAAGCACGAGGAUCACCCGUGUAAAAUUGGGACCCUUGGCAGCAGAUCGCAUACU | 96.8 | 352 | 115 | 57.8 | 228 |
| AAAUAAUCUAGUCCACAAUGUGACUCAGAUACCAGUGCAAAGCUACACCCUUGGCAGCUGGUUACAUGAGGAUCACCCAUGUCGU [theeternabot_exclusion_MS2_Theo_A_50] | 34.3 | 51.9 | 46.9 |  |  |
| ACAUGAGGAUCACCCAUGUGCCGUCUUGAUACCAGACGCGAAGUAGUCCCUUGGCAGCAACUACGUGACGGUCGCGCAUGUGUAG [bcxmullin] | 17.8 | 21.4 | 16.1 |  |  |
| UGAGAGGGCGGAAGGAGCGACAUGAGGAUCACCCAUGUCUCCCGUUAUGGGAGUUCUUUAGGUCAGGUAGGUCGCCGGCCUCUCA [#1 Exclusion - Arginine B Attempt #10 (Inspired by Omei)] | 94.3 | 104 | 111 | 127 | 122 |
| AAGAAGUUUUGAUUUUUAUGAAGUAGUGAUACCAGUUAAGAAAGAGACCCUUGGCAGCGCAACAUGAGGAUCACCCAUGUAAGAA [Another radom design] | 18.9 | 21.1 | 21.9 | 19.7 | 17.3 |
| AGCGCGAAUAGAUCCAAAGUUAUUAGUGAGCGAGGACCGGUACGGCCGCCACUCGUGGCUCUACAUGAGGAUCACCCAUGUACAU [theeternabot_exclusion_MS2_Trp_A_10] | 52.2 | 234 |  | 384 |  |
| AAAAUAAAGGCGGCCGCCACUAGAGUUAGGCAUAUGUACUGGGUAACAUGAGGAUCACCCAUGUAUAGGACCGGGCCAUAAUAAA [Same State - Tryptophan B (Freestyle 1)] | 51.7 | 46.2 | 36.5 | 33.4 | 39.9 |
| GUUGUAUACUCGGCCGCCACUGAGAGAGUCAUGUAAACAUGAGGAUCACCCAUGUAAUAUAUAUACAGGACCGGGAGUGUGGUAA [4.G] | 9.31 | 16 | 11.8 | 12 | 12.8 |
| UAUAUAUAUCACUAACUGUUCUUGAGGUCUCGAGGACCGGUACGGCCGCCACUCGUACCGCCUCACAUGAGGAUCACCCAUGUCC [XTryp A #1] | 52.2 | 85.5 |  | 97.6 |  |
| GCAAAGUGAUCGGCCGCCACUGCAAUGCUUAAUGGAGGUCCACAUGAGGAUCACCCAUGUCUUCCCAGGACCGGGAUCUCGAGUU [theeternabot_sameState_MS2_Trp_B_3] | 59 | 65.5 |  | 72.6 |  |
| GACCUUGCGGGCGCCCGCAAGGUCGCGGAUACCAGCGAGGUCCAUCGCCCUUGGCAGCCGAACAUGAGGAUCACCCAUGUCGGUU [Same State - Theophylline A Attempt #5 (HarryS)] | 8.39 | 12.8 | 11 |  |  |
| AUUUAUUGUCGUGAUACCAGACAUACAUGAGGAUCACCCAUGUUAAGUAACAUUUUUUAGGUCCCUUGGCAGCACUUUUUAAUUA [JR_Nu_SSTheophyB_Sub018] | 30.2 | 36.1 | 25.4 |  |  |
| ACAUGAGGAUCACCCAUGUAACGUCUUGAUACCAGACGAGAAGUAGUCCCUUGGCAGCAAAUACGUGAGGGUCACACAUGUGUAA [vvvmullin] | 13.8 | 34.4 | 22.1 |  |  |

| Sequence | apparent KD of MS2 coat protein (input ligand: arginine 13.2 mM) [nM] | apparent KD of MS2 coat protein [1] [nM] | apparent KD of MS2 coat protein [2] [nM] | apparent KD of MS2 coat protein [3] [nM] | apparent KD of MS2 coat protein (input ligand: none) [nM] |
| --- | --- | --- | --- | --- | --- |
| UAUCGUCAGACGGCCGCCACUAGAACAUGAGGAUCACCCAUGUAGGCGGCCGAUUCCUCAUUAACUAGGACCGGGUCUGACGAAU [(Trp1)-(Ms2)-(T)'-(M)'-(Trp2)_Design11] | 11.5 | 15.9 |  | 9.76 |  |
| UAUUAUCAGUCGGCCGCCACUGACACAUGAGGAUCACCCAUGUAAUUUGGGUUAUAUAGAAAAUACAGGACCGGGACUAAGGCUA [JR_ExcTryptoB_Sub014] | 87.5 | 324 |  | 326 |  |
| AGCUCGCGAAAGCGAGCAACAUGAUCCGAAGGAGCGCGCGAAAGCGCAGGUAGGUCGCGGACAUGAGGAUCACCCAUGUCUCCUU [MAT - Exclusion Arginine A - Mod of Eli - D14] | 41 | 57.3 | 62.2 | 63.2 | 66.2 |
| UGUAUGUGAUUUGAUACCAGACCAGCUGGUGGUACAUGAGGAUCACCCAUGUAGGUUUGGGUCCCUUGGCAGCAAAUCGCAUACU [SSTheo B #24] | 54.6 | 64.5 | 44 |  |  |
| AGUAGUUGACAAAAGUCAGCUACAACUGAAGGAGCGGGUGGGUGCCCAGGUAGGUCGCAGGAACAUGAGGAUCACCCAUGUAUAA [ArgAS 3 #BothOrNeither #OpenEnded] | 35.9 | 40.3 | 18.5 | 32.2 | 22.7 |
| GGUCUCUGGAGCGAUACCAGCUUGAUCGUACUAGCCUGGUACAUGAGGAUCACCCAUGUAAGCCCUUGGCAGCGCUCCAGAGACC [#1 Exclusion - Theophylline B Attempt #8 (HarryS)] | 11.8 | 15.8 | 12.1 | 21.4 | 12.7 |
| CCGGGCCCGGGCGACCGGGCCCGGACUGAAGGAGCGGGAAUAAACCCAGGUAGGUCGCAGAGAUCCACAUGAGGAUCACCCAUGU [!0.V] | 31.7 | 49.6 | 48.6 | 50.9 | 30.9 |
| ACGAUAGGACAUGAGGAUCACCCAUGUGAUACCAGCCUGGAAACAGGCCCUUGGCAGCACAAAUACUCCAGAAACCUAUCGAAUA [TheoAX2 #MicroSwitchBubble] | 124 | 294 | 273 |  |  |
| GCACGACAUGAGGAUCACCCAUGUGCAGAUACCAGUAAUGUAUAUUACCCUUGGCAGCUGAGUAGGUCUGGAGGGCUAUAGGUAA [Same State Theophylline A GF11] | 11.6 | 20.6 | 14.6 | 15.4 | 12.3 |
| UAAGCGCGAGGAGACGGAACCAAUCUUGUUCGAGGACCGGUACGGCCGCCACUCGGCGUAAAACAUGAGGAUCACCCAUGUGCAA [theeternabot_exclusion_MS2_Trp_A_18] | 10.8 | 15.6 | 16.4 | 16.1 | 13.2 |
| UUAGAUAUGACAGAUACCAGCGUGUUGUAGAACAUGAGGAUCACCCAUGUAGUGAUCAAGCGCCCUUGGCAGCUGGUAUGUUUGG [7.X] | 61.5 | 277 | 179 |  |  |
| AGCAUCUAGUCGGCCGCCACUCUUAUUACAUGAGGAUCACCCAUGUUUAAUUCAUGGUUAUAUUUGAGGACCGGGACAUUUGCAU [JR_ExcTryptoB_Sub007] | 39.7 | 70.2 |  | 74.9 |  |
| GGCACCAGGAGAAGGAGCGUGAAGACAUGAGGAUCACCCAUGUAGAGGCGCCGACGGCGUUCGCAGGUAGGUCGCUCCUGGUGCC [#1 Same State - Arginine B Attempt #16 (HarryS)] | 20.9 | 32.3 | 29.3 | 23.5 | 21 |
| GUCGGAGUCUGAAGGAGCGACAUGAGGAUCACCCAUGUCUCCCGUUAUGGGAGUUCCUUAGGUCAGGUAGGUCGCAGACUCCGAC [#1 Exclusion - Arginine B Attempt #25 (Inspired by Omei)] | 78.1 | 145 | 140 | 144 | 141 |
| ACAAGGACAUGAGGAUCACCCAUGUGGGAAGGAGCGCAUAAAUAUGCAGGUAGGUCGCCCGGCGUGAUAUUUAAUAUUUUAAUAA [Exclusion - Arginine A] | 34 | 79.4 | 60.2 | 73.5 | 55.7 |
| CCAUCUUCAUCGGCCGCCACUGAACCAAGGAGACAUGAGGAUCACCCAUGUAUGGGAAACCAUCAUAGGACCGGGAUGAAGGUGG [doubleHookLine] | 36 | 56.1 |  | 48.1 |  |
| UGGUACAUGGCGGCCGCCACUUCACGUAAAAUAAAAGCUUGAGGAUCACCCAAGUAAUAAGUUGGGAGGACCGGGUCAUGUACCU | 19.2 | 27 | 16.6 | 24.7 | 19.8 |
| GACCUUGCCUGAAGGAGCGAGGUAAAUAGGGUUGAGCAUACAUGAGGAUCACCCAUGUGGCCUCAGGUAGGUCGCAGGUAGGACA [Exclusion Arginine B GF30] | 97.1 | 224 | 114 | 189 | 114 |

Reference: the supplement of paper PMC9170038
